From patent US20240261333A1, “NOVEL TARGETS FOR ENHANCING ANTI-TUMOR IMMUNITY” (THE BROAD INSTITUTE, INC., priority 2021, published 2024)

Tests used:
[1] = target: RPL11 (UniProt P62913); assay: co-IP with mouse IgG control, mass spectrometry; lysate of C-FLAG B3GNT2 cells
[2] = target: RPS11 (UniProt P62280); assay: as above
[3] = target: RPS15A (UniProt P62244); assay: as above
[4] = target: S100A8 (UniProt P05109); assay: as above
[5] = target: ATXN2L (UniProt Q8WWM7); assay: as above
[6] = target: FABP5 (UniProt Q01469); assay: as above
Sequence of FABP5 (Q01469 2-135 limits assumed): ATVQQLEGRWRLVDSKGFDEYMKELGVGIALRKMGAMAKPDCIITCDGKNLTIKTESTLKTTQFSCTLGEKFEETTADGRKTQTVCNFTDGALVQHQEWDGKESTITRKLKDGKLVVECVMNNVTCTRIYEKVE

[7] = target: S100A9 (UniProt P06702); assay: as above
[8] = target: TPI1 (UniProt P60174); assay: as above
[9] = target: RPL21 (UniProt P46778); assay: as above
[10] = target: LYZ (UniProt P61626); assay: as above
[11] = target: ACTR3 (UniProt P61158); assay: as above
[12] = target: STRAP (UniProt Q9Y3F4); assay: as above
Sequence of STRAP (Q9Y3F4 whole entry): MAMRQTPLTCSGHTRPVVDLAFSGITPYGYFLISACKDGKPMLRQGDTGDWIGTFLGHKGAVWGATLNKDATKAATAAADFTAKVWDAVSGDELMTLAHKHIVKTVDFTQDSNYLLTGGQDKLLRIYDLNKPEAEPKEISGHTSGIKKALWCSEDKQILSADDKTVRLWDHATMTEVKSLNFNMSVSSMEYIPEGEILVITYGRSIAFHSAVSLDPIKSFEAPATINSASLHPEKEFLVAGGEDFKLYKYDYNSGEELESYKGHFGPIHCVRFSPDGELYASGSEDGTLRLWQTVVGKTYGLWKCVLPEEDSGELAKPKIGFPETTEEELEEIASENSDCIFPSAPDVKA

[13] = target: SPRR2E (UniProt P22531); assay: as above
Sequence of SPRR2E (P22531 whole entry): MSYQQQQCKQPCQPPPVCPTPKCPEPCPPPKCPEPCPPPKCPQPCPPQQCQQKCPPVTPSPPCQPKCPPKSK

[14] = target: RCC2 (UniProt Q9P258); assay: as above
[15] = target: RPL31 (UniProt P62899); assay: as above
[16] = target: SLIRP (UniProt Q9GZT3); assay: as above
[17] = target: AHNAK (UniProt Q09666); assay: as above
[18] = target: HNRNPF (UniProt P52597); assay: as above
Sequence of HNRNPF (P52597 2-415 limits assumed): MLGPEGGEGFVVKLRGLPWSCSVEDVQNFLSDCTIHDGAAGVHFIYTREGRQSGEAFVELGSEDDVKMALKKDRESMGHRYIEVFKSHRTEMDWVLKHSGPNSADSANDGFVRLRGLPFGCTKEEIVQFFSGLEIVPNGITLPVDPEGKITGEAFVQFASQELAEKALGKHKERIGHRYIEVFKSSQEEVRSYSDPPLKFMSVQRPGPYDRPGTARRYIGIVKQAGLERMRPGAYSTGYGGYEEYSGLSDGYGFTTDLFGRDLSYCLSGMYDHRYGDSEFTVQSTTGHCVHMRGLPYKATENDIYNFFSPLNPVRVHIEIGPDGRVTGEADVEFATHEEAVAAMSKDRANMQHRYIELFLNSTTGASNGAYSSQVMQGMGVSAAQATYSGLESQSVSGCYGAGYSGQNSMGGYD

[19] = target: H1FX (human) (UniProt Q92522); assay: IgG control IP from lysate of C-FLAG B3GNT2 cells, mass spectrometry
[20] = target: RPL15 (human) (UniProt P61313); assay: as above
[21] = target: SLC25A22 (human) (UniProt Q9H936); assay: as above
[22] = target: ERP44 (human) (UniProt Q9BS26); assay: as above
[23] = target: IFI16 (human) (UniProt Q16666); assay: as above
[24] = target: TECR (human) (UniProt Q9NZ01); assay: as above
[25] = target: EEF2 (human) (UniProt P13639); assay: as above
[26] = target: KTN1 (human) (UniProt Q86UP2); assay: as above
Sequence of KTN1 (human) (Q86UP2 whole entry): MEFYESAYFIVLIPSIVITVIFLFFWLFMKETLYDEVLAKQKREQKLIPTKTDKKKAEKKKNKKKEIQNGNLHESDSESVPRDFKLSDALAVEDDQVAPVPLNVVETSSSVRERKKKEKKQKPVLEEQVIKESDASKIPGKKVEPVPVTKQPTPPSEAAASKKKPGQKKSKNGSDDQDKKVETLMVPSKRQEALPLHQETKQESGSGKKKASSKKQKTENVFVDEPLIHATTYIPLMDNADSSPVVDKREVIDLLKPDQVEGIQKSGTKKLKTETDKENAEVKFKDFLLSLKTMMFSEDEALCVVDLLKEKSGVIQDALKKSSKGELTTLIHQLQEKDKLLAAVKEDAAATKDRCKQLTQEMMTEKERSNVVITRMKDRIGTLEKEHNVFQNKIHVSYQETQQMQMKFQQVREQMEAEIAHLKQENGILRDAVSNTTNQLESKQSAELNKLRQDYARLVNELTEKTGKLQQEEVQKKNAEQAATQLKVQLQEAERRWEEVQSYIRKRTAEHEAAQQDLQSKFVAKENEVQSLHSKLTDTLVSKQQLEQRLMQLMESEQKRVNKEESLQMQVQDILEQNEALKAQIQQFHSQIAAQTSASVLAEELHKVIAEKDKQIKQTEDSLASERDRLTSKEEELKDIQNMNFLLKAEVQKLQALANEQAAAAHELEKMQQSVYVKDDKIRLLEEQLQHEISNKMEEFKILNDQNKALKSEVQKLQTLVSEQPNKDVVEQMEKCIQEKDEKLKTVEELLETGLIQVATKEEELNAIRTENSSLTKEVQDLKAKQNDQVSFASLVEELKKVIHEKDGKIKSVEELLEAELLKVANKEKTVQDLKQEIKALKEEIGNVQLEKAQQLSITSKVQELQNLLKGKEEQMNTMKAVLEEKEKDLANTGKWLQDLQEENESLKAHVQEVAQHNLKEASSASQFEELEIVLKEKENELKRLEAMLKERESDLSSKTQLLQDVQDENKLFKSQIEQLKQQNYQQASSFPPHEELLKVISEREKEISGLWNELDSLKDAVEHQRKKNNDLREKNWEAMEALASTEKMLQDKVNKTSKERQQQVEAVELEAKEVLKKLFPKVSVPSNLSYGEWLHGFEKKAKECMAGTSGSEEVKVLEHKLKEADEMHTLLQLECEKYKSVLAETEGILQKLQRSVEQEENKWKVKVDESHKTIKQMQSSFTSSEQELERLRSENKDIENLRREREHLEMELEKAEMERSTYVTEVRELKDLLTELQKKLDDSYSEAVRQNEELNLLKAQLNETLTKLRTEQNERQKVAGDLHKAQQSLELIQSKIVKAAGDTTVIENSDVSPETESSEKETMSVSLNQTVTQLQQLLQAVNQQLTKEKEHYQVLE

[27] = target: HDGFL2 (human) (UniProt Q7Z4V5); assay: as above
Sequence of HDGFL2 (human) (Q7Z4V5 whole entry): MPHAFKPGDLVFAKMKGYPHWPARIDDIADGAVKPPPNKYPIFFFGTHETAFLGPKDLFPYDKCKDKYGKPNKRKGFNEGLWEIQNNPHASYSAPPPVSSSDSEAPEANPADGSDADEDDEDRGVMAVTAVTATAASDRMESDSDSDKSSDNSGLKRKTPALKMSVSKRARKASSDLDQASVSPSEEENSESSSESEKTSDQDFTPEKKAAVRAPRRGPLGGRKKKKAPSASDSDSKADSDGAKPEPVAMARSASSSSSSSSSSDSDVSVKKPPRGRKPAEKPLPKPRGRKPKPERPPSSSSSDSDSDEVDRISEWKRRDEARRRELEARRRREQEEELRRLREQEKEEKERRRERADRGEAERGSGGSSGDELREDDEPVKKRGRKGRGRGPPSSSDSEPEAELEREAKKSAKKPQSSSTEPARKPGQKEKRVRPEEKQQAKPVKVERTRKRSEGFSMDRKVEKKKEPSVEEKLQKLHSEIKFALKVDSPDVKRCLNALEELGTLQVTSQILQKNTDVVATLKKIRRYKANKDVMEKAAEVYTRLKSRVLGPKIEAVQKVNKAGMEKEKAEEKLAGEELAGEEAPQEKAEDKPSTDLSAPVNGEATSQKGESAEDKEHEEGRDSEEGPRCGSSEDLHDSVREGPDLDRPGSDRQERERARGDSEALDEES

[28] = target: LDHA (human) (UniProt P00338); assay: as above
[29] = target: NTPCR (human) (UniProt Q9BSD7); assay: as above
Sequence of NTPCR (human) (Q9BSD7 2-190 limits assumed): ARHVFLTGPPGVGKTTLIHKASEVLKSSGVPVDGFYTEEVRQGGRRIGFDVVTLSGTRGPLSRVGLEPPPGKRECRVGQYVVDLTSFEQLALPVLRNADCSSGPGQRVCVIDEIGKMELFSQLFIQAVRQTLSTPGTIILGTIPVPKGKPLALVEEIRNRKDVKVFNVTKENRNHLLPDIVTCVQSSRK

[30] = target: RPS6 (human) (UniProt P62753); assay: as above
[31] = target: PSMC2 (human) (UniProt P35998); assay: as above
Sequence of PSMC2 (human) (P35998 2-433 limits assumed): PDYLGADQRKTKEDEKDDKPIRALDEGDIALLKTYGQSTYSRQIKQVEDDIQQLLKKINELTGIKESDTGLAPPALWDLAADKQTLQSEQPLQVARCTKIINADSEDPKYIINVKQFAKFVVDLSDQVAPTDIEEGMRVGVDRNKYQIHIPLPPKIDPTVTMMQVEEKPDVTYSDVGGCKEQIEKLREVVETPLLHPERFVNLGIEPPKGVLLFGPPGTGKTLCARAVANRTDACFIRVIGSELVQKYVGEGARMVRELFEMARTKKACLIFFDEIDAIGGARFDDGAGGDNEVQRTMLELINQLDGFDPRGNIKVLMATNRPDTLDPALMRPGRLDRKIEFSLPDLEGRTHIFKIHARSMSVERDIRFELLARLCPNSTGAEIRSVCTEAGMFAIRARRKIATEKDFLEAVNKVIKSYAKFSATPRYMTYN

[32] = target: HSP90AB1 (human) (UniProt P08238); assay: as above
[33] = target: ABCD1 (human) (UniProt P33897); assay: as above
Sequence of ABCD1 (human) (P33897 whole entry): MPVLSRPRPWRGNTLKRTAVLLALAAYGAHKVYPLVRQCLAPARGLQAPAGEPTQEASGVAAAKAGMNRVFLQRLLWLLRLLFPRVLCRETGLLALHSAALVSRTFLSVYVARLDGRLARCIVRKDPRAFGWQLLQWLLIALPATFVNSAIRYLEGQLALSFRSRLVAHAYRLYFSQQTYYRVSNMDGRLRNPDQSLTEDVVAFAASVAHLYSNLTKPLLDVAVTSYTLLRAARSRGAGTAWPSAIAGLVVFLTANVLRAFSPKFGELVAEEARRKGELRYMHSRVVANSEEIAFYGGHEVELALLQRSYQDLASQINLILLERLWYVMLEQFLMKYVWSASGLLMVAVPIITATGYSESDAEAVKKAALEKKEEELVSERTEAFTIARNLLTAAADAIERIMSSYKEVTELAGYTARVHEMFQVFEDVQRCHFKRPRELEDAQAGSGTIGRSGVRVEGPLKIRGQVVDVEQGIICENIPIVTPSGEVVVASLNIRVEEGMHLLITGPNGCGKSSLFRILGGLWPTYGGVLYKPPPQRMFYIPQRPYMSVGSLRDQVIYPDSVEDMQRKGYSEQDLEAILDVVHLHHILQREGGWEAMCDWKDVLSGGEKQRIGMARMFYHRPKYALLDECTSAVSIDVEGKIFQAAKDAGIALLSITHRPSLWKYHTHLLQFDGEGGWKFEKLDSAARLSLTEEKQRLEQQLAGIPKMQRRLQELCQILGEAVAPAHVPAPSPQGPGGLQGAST

[34] = target: ERP29 (human) (UniProt P30040); assay: as above
[35] = target: PSMB6 (human) (UniProt P28072); assay: as above
Sequence of PSMB6 (human) (P28072 35-239 limits assumed): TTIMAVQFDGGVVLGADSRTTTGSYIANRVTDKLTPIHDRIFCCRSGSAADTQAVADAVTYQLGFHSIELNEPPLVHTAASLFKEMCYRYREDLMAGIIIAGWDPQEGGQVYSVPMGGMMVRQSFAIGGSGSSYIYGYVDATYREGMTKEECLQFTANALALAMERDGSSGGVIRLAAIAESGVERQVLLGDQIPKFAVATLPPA

[36] = target: KPNB1 (human) (UniProt Q14974); assay: as above
[37] = target: PGAM5 (human) (UniProt Q96HS1); assay: as above
Sequence of PGAM5 (human) (Q96HS1 whole entry): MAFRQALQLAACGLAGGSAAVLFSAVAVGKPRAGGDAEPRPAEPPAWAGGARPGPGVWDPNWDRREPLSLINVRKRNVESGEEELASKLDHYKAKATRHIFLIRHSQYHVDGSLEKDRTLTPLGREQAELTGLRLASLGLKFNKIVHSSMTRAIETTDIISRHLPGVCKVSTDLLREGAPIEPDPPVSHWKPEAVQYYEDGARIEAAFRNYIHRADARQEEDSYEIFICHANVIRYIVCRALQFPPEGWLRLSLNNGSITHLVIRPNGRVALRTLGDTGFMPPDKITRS

[38] = target: ZRANB2 (human) (UniProt O95218); assay: as above
[39] = target: SFXN3 (human) (UniProt Q9BWM7); assay: as above

Substance: IgG control (Millipore Sigma 12-371) (antibody)
- co-IP mass spectrometry count [1]: 3
- co-IP mass spectrometry count [2]: 9
- co-IP mass spectrometry count [3]: 2
- co-IP mass spectrometry count [4]: 5
- co-IP mass spectrometry count [5]: 2
- co-IP mass spectrometry count [6]: 0
- co-IP mass spectrometry count [7]: 5
- co-IP mass spectrometry count [8]: 0
- co-IP mass spectrometry count [9]: 5
- co-IP mass spectrometry count [10]: 0
- co-IP mass spectrometry count [11]: 2
- co-IP mass spectrometry count [12]: 0
- co-IP mass spectrometry count [13]: 5
- co-IP mass spectrometry count [14]: 0
- co-IP mass spectrometry count [15]: 0
- co-IP mass spectrometry count [16]: 0
- co-IP mass spectrometry count [17]: 2
- co-IP mass spectrometry count [18]: 3
- co-IP mass spectrometry count [19]: 0
- co-IP mass spectrometry count [20]: 2
- co-IP mass spectrometry count [21]: 0
- co-IP mass spectrometry count [22]: 0
- co-IP mass spectrometry count [23]: 0
- co-IP mass spectrometry count [24]: 0
- co-IP mass spectrometry count [25]: 0
- co-IP mass spectrometry count [26]: 0
- co-IP mass spectrometry count [27]: 0
- co-IP mass spectrometry count [28]: 0
- co-IP mass spectrometry count [29]: 0
- co-IP mass spectrometry count [30]: 2
- co-IP mass spectrometry count [31]: 0
- co-IP mass spectrometry count [32]: 2
- co-IP mass spectrometry count [33]: 0
- co-IP mass spectrometry count [34]: 0
- co-IP mass spectrometry count [35]: 0
- co-IP mass spectrometry count [36]: 0
- co-IP mass spectrometry count [37]: 0
- co-IP mass spectrometry count [38]: 0
- co-IP mass spectrometry count [39]: 0
